B1: IL-15R β protein (receptor, UniProt P14784 27-239, looked up)
chain: AVNGTSQFTCFYNSRANISCVWSQDGALQDTSCQVHAWPDRRRWNQTCELLPVSQASWACNLILGAPDSQKLTTVDIVTLRVLCREGVRWRVMAIQDFKPFENLRLMAPISLQVVHVETHRCNISWEISQASHYFERHLEFEARTLSPGHTWEEAPLLTLKQKQEWICLETLTPDTQYEFQVRVKPLQGEFTTWSPWSQPLAFRTKPAALGKD
notes: also called IL-15 receptor β; IL-2/IL-15 receptor beta

Columns and labels:
[1] = target: IL-15R β protein (UniProt P14784); assay: BLI (Octet-RED), IL-15Rβ immobilized on Ni-NTA biosensors, serial dilutions of the complex as analyte, global 1:1 fit
[2] = target: FL115-WT (Homo sapiens (Human), UniProt P40933 49-162); assay: as above
FL115-WT, sequence (chain, as listed by the source limits assumed, chain 1 of 2): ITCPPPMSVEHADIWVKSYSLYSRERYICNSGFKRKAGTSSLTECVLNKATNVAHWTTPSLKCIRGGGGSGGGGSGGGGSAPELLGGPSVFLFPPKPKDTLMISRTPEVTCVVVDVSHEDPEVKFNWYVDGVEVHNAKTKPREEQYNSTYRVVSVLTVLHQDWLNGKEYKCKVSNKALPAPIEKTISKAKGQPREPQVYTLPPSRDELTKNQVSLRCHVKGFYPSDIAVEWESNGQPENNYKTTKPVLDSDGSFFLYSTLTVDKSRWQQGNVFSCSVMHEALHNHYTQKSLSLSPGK
FL115-WT, sequence (P40933 49-162 limits assumed, chain 2 of 2): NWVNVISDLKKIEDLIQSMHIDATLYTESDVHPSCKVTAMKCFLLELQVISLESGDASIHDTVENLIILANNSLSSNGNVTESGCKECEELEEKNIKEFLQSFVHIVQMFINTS
Procedure: The binding activity of an agonistic interleukin 15 complex to the receptor IL-15R β was assayed using an Octet-RED (Pall ForteBio) Bio-Layer Interferometry (BLI) instrument. […] 6.2 (2022): e2100966, PMID: 35174992). The baseline was established in kinetics buffer and loaded biosensors were dipped into wells containing serial dilutions of an agonistic interleukin 15 complex for 300 s. FL115 (also named FL115-V2), an agonistic interleukin 15 complex according to an embodiment of the application, contains a monomeric IL-15 receptor αSu/Fc fusion protein having the amino acid sequence of SEQ ID NO: 2 and a mutant IL15 having the amino acid sequence of SEQ ID NO: 3. FL115-WT, another agonistic interleukin 15 complex according to an embodiment of the application, contains a monomeric IL-15 receptor αSu/Fc fusion protein having the amino acid sequence of SEQ ID NO: 2 and the wild-type IL15 having the amino acid sequence of SEQ ID NO: 4. The agonistic interleukin 15 complex was bound to the immobilized IL-15R β protein. The binding complexes of the IL-15R β protein-agonistic IL15 complex were then allowed to dissociate in kinetics buffer. Global data fitting to a 1:1 binding model was used to estimate the affinity using Data Analysis software version 8.1.

Molecule	Kd [1] [nM]	koff [1] [s⁻¹]	kon [1] [M⁻¹ s⁻¹]	Kd [2] [nM]	koff [2] [s⁻¹]	kon [2] [M⁻¹ s⁻¹]
ALT 803 (Fc fusion)	3.9	0.000235	60400			
B1				62.7	0.00108	17200
